The target of this data set is T1, hPus1 (79-408) (Homo sapiens, UniProt Q9Y606 79-408).
T1 sequence: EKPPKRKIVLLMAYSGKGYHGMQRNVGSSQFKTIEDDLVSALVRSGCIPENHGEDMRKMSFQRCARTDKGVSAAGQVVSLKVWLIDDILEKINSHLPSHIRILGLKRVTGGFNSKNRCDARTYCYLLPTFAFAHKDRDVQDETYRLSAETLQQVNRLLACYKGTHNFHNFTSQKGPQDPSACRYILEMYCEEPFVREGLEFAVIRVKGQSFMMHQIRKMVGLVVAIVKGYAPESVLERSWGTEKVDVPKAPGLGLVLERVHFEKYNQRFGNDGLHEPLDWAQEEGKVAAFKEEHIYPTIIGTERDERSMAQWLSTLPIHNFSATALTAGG
The data set is described as follows: size exclusion chromatography. On the technique in general: Size exclusion chromatography separates by hydrodynamic size, large species first.

The source of these data is publication PMC3900414.

B1: minimal tRNASer (nt 26-65), unlabeled (structured_RNA)
RNA: GAUGGACUUGAAAUCCAUUGGCGCAGGUUCGAAUCCUGC
Regarding B1, the binding result is “binds”.
